From PMC5260945 (Nature structural & molecular biology, 2011) come the findings set out here.

One may read the Kd as the free concentration of one partner at which half of the binding sites on the other are occupied at equilibrium, for simple one-to-one binding. A high value points to lower affinity.

One experiment addresses 15N-labeled Ub (UniProt P0CG47 1-76). Description: NMR titration.
Experiment [1] deals with Unlabeled Ub (from bovine red blood cells, Sigma-Aldrich) (bovine, UniProt P0CG53 1-76). Description: NMR titration.

Positions count from the first letter of the chain named. Names and notes keep the numbering of the source. Where only a bound is given, the exact number is not on record here.

B1: TRABID AnkUBD (aa 245-339) (domain or fragment)
chain: LEVDFKKLKQIKNRMKKTDWLFLNACVGVVEGDLAAIEAYKSSGGDIARQLTADEVRLLNRPSAFDVGYTLVHLAIRFQRQDMLAILLTEVSQQA
In the case of B1, the Kd with 15N-labeled Ub came to 134 ± 19 µM. For the same molecule, the binding result in experiment [1] is recorded as “binds”.

B2: TRABID AnkUBD H317A (domain or fragment)
chain: B1 chain with H73A
With B2, the Kd with 15N-labeled Ub was > 1200 µM.
